Test results from US12630596B2, “Engineered lysin-human defensin protein” (priority 2018, dated 2026).
Entries after “also recorded” stand apart in the source; their conditions may differ.

Tests used:
C. difficile R20291 = experiment: Optical drop assay, lytic activity on C. difficile R20291; assay type: cell-based, Clostridium difficile; conditions: strain R20291, 200 μg/ml
Description: The lytic activity of proteins LHD and LCD against C. difficile strains was determined as previously described (Wang, Euler et al. 2015). Briefly, C. difficile strains were cultured in an anaerobic chamber to mid-log phase, and the bacterial pellets were harvested by centrifugation at 3000×g for 5 min. Pellets were washed twice and re-suspended in sterilized ddH2O, and resuspensions were not buffered. Prior to tests, bacterial optical density at 600 nm (OD600) was adjusted to approximately 0.8-1.0. Proteins LHD and LCD were added into the cell re-suspension with the final concentration of 200 μg/ml. The drop in OD600 at 37° C. was measured every 10 minutes for 60 min˜90 min. Bacterial re-suspension with sterilized water was also set as a control. Three repeats were included in each test.

[1] = tested on: C. difficile R20291 spores; experiment: Treatment efficacy in the mouse model of CDI; assay type: in vivo, C57BL/6 mice; conditions: mice
Description: After 5 days of antibiotic pretreatment, mice were given autoclaved water for 2 days, followed by a single dose of clindamycin (10 mg/kg) intraperitoneally, 1 day before (day-1) challenge with C. difficile R20291 spores by gavage (day 0). The first group (R20291+PB) was infected with 10^6 C. difficile R20291 spores on day 0, and was given PBS (PB) by gavage at 4 h after spore gavage, followed by administration of PB by gavage twice a day from the first day (day 1) to the seventh day (day 7) after spore gavage. The second group (LHD+R20291) was given 400 μg LHD by gavage at 4 h after spore gavage, followed by treatments of 400 μg LHD by gavage twice a day from day 1 to day 7 after spore gavage.
C57BL/6 mice (6-week-old) were purchased from Charles River Laboratories, MA. The mice were housed in groups of 5 animals per cage under the same conditions. All studies followed the Guide for the Care and Use of Laboratory Animals of the National Institutes of Health, and were approved by the Institutes Animal Care and Use Committee (IACUC) at University of South Florida under the animal protocol number 1S00003756. Mouse model of CDI was established as described previously (Zhang, Zhao et al. 2015). The experimental design is illustrated in FIG. 6. Briefly, twenty BL6/C57 female mice were divided into two groups (n=10). Before challenge, mice were pre-treated with antibiotics mixture (ampicillin (200 mg/kg), kanamycin (40 mg/kg), gentamicin (3.5 mg/kg), colistin (4.2 mg/kg), metronidazole (21.5 mg/kg) and vancomycin (4.5 mg/kg)) in drinking water for five days. After that, all mice were given autoclaved water for 2 days, followed by a single dose of clindamycin (10 mg/kg) intraperitoneally 1 day before (day-1) challenge with C. difficile R20291 spores at 10^6 by gavage (day 0). At 4-hr post infection, one group of mice (R20291+LHD) were given a dose of 400 μg LHD in 200 μL of PBS by gavage, and another group of mice (R20291+PB) received sterilized PBS as control. From the first day (day 1) to the seventh day (day 7) after infection, mice were given a dose of 400 μg LHD or PBS by gavage twice a day. Weight changes, diarrhea, and survivals of the mice were recorded during the 7-day monitoring period. Fecal samples from mice were collected at days 0, 1, 3, 5, and 7 post challenge for quantitating C. difficile spores and TcdA/TcdB concentration.
Fecal samples were collected on days 1, 3, 5, 7 post-infection. 50 mg of feces were dissolved with 500 μl sterile MilliQ water for 16 h at 4° C., and then treated with 500 μl of purified ethanol (Sigma-Aldrich) for 60 min at room temperature to kill vegetative cells. Samples were vortexed, serially diluted and plated onto selective medium supplemented with taurocholate (0.1% w/v), Cefoxitin (16 μg/mL), L-cycloserine (250 μg/mL). The plates were incubated anaerobically at 37° C. for 48 h, colonies counted and results expressed as the CFU/gram of feces.
After challenges with C. difficile spores, feces were collected and dissolved in an equal volume (g/ml) of sterile PBS containing protease inhibitor cocktail and the supernatants were collected after centrifugation and stored at −80° C. TcdA/TcdB concentrations in the fecal samples of […] were determined by ELISA. Brieflly, 96-well Costar microplates were coated with 100 μl of anti-TcdA antibody (1 μg/ml) and anti-TcdB antibody (1 μg/ml) overnight in phosphate-buffered saline (PBS) at 4° C. On the next day, each well was blocked with 300 ul of blocking buffer (PBS+5% dry milk) at RT for 2 hrs. Next, standards and samples were added to each well (100 μl) in duplicate and incubated for 90 min at 25° C. After another set of washes, HRP-chicken anti-C. difficile Toxin A or B (1:5,000 dilution in PBS, Gallus Immunotech, Shirley, MA) was added to wells for 30 min at RT. A final set of 3 washes preceded the addition of the TMB Microwell Peroxidase Substrate for 20 minutes at RT in the dark. […]

[2] = 400 μg LHD by gavage twice a day, vs PBS
[3] = R20291 spores, 400 μg LHD by gavage twice a day

B1: LHD: Fusion of phage phiC2 lysin catalytic domain (LCD, 179aa), (GGGGS)3 linker and human alpha-defensin 5; SEQ ID NO:1 (protein)
chain: MKICITVGHSILKSGACTSADGVVNEYQYNKSLAPVLADTFRKEGHKVDVIICPEKQFKTKNEEKSYKIPRVNSGGYDLLIELHLNASNGQGKGSEVLYYSNKGLEYATRICDKLGTVFKNRGAKLDKRLYILNSSKPTAVLIESFFCDNKEDYDKAKKLGHEGIAKLIVEGVLNKNINGGGGSGGGGSGGGGSATCYCRTGRCATRESLSGVCEISGRLYRLCCR
lytic activity (drop in OD600) (C. difficile R20291): potent lytic activities | number of C. difficile spores in feces [1, 2]: significantly decreased | toxin-level in feces (TcdA, TcdB) [1, 2]: significantly decreased | survival ([1]; 7-day experimental period, 400 μg LHD by gavage twice a day): all mice receiving the treatment of LHD survived | diarrhea rate [1, 3]: 60% | duration of diarrhea [1, 3]: 3 days | weight loss ([1]; R20291 spores, 400 μg LHD by gavage twice a day, vs PBS): decreased both weight loss and diarrhea rate significantly; also recorded: significantly less weight | weight recovery ([1]; from 3 dpi to 7 dpi, vs PBS): slower
